Paper PMC2194124 (The Journal of Experimental Medicine, 2003)

Target: Isolated Mac-1 (αMβ2, CD11b/CD18) (UniProt P11215 17-1152; P05107 23-769)
Assay: ELISA

- IC50: ~0.175 µM
B1: Recombinant soluble mouse RAGE (receptor)
chain: GQNITARIGEPLVLSCKGAPKKPPQQLEWKLNTGRTEAWKVLSPQGGPWDSVARILPNGSLLLPATGIVDEGTFRCRATNRRGKEVKSNYRVRVYQIPGKPEIVDPASELTASVPNKVGTCVSEGSYPAGTLSWHLDGKLLIPDGKETLVKEETRRHPETGLFTLRSELTVIPTQGGTHPTFSCSFSLGLPRRRPLNTAPIQLRVREPGPPEGIQLLVEPEGGIVAPGGTVTLTCAISAQPPPQVHWIKDGAPLPLAPSPVLLLPEVGHEDEGTYSCVATHPSHGPQESPPVSIRVTETGDEGPAEGSVGESGLGTLA
